Article PMC4811204 (Nature structural & molecular biology, 2013)
Where no end group is shown, it is not given here. [ ]: non-standard residue; d: D form. pS = N[C@@H](COP(=O)(O)O)C(=O)O

B2: MBP-fused full-length human Tristetraprolin (TTP) (natural protein, UniProt P26651 1-326, looked up)
chain: MDLTAIYESLLSLSPDVPVPSDHGGTESSPGWGSSGPWSLSPSDSSPSGVTSRLPGRSTSLVEGRSCGWVPPPPGFAPLAPRLGPELSPSPTSPTATSTTPSRYKTELCRTFSESGRCRYGAKCQFAHGLGELRQANRHPKYKTELCHKFYLQGRCPYGSRCHFIHNPSEDLAAPGHPPVLRQSISFSGLPSGRRTSPPPPGLAGPSLSSSSFSPSSSPPPPGDLPLSPSAFSAAPGTPLARRDPTPVCCPSCRRATPISVWGPLGGLVRTPSVQSLGSDPDEYASSGSSLGGSDSPVFEAGVFAPPQPVAAPRRLPIFNRISVSE
B3: GST-tagged CNOT1(800–1015) (domain or fragment, human, UniProt A5YKK6-2 800-1015, looked up)
chain: NNDPFVQRKLGTSGLNQPTFQQTDLSQVWPEANQHFSKEIDDEANSYFQRIYNHPPHPTMSVDEVLEMLQRFKDSTIKREREVFNCMLRNLFEEYRFFPQYPDKELHITACLFGGIIEKGLVTYMALGLALRYVLEALRKPFGSKMYYFGIAALDRFKNRLKDYPQYCQHLASISHFMQFPHHLQEYIEYGQQSRDPPVKMQGSITTPGSIALAQA

Assays:
[1] = molecular target: B3; test: pull-down
[2] = molecular target: GST-fused CNOT1 fragment, residues 727–1266 (human, UniProt A5YKK6-2 727-1266); test: pull-down
[3] = molecular target: CNOT1(800–999), TTP-interacting fragment of CNOT1 (human, UniProt A5YKK6-2 800-999); test: ITC
[4] = molecular target: B2; test: pull-down
[5] = molecular target: T1, MBP-TTP lacking amino acids 179–192 (TTP-MUT1) (human, UniProt P26651 1-326, lacking amino acids 179–192); test: pull-down
T1 sequence (looked up): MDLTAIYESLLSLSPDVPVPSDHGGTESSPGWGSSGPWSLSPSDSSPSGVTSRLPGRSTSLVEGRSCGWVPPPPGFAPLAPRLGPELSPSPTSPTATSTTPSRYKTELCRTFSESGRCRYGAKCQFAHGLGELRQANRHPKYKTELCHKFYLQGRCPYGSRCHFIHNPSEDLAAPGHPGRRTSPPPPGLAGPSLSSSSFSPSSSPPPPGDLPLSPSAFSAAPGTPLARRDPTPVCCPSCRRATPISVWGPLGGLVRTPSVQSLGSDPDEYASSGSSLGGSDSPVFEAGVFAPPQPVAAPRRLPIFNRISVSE

B1: MBP-tagged TTP-CTD with Asn320 mutated to alanine (domain or fragment, human, UniProt P26651 174-326, looked up)
chain: APGHPPVLRQSISFSGLPSGRRTSPPPPGLAGPSLSSSSFSPSSSPPPPGDLPLSPSAFSAAPGTPLARRDPTPVCCPSCRRATPISVWGPLGGLVRTPSVQSLGSDPDEYASSGSSLGGSDSPVFEAGVFAPPQPVAAPRRLPIFARISVSE
B1: binds [1].

B2: binds [2].

APRRLPIFNRI[pS]VSE [TTP-CIM peptide 312–326 containing phospho-Ser323] showed a Kd [3] of ~0.625 mM.

APRRLPIANRISVSE [TTP peptide 312–326, Phe319Ala mutant] showed a Kd [3] of ~7 mM.

B3: binds [4]; binds [5].
